This is an account of results in publication PMC9813592, “A genetic screen in Arabidopsis reveals the identical roles for RBP45d and PRP39a in 5’ cryptic splice site selection”.

Series [1] concerns the target T1, RBP45d (His-RBP45d) (Arabidopsis thaliana, UniProt Q8VXZ9 1-425).
T1 sequence: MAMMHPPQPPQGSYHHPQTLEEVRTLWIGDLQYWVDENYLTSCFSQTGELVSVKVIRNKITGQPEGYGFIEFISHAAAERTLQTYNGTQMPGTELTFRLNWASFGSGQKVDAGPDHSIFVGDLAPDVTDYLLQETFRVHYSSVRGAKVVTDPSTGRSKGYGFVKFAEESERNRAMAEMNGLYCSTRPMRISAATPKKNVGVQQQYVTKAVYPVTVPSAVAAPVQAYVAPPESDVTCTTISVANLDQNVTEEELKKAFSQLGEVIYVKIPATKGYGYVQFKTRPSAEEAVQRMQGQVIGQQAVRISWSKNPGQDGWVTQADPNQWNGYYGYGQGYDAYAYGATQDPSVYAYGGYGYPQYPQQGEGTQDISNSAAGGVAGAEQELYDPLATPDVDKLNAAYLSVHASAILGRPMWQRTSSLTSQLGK
Briefly: EMSA; dose-dependent; REMSA; buffer, salt, pH and temperature not given in the material; unlabeled competitor up to at least 6 uM. The following applies: protein: recombinant; tags: His (pET51b); label: 5'-Cy5; single strand.

The target of series [2] is T1, RBP45d (His-RBP45d). The experiment in a line: competition; unlabeled vs Cy5-SOT5-IN7; REMSA; buffer, salt, pH and temperature not given in the material; unlabeled competitor up to at least 6 uM. Conditions: protein: recombinant; tags: His (pET51b); single strand.

Take CUCAAUAUGAUAAAUUUUGUAAAUC (ssRNA) [Cy5-SOT5-IN7]: in the series with RBP45d (His-RBP45d) [1], the binding result is given as “binds”.

Consider CUCAAUAUGGUAAAUUUUGUAAAUC (ssRNA) [SOT5-IN7-M1-NL], for which the binding result with RBP45d (His-RBP45d) [2] is “binds”.

Regarding CUCAAUAUGCCCGGCCGGGUAAAUC (ssRNA) [SOT5-IN7-M4-NL], in the series with RBP45d (His-RBP45d) [2], the binding result was “no binding”.

In the case of CUCAAUAUGGCAAAUUUUGUAAAUC (ssRNA) [SOT5-IN7-M2-NL], the binding result with RBP45d (His-RBP45d) [2] is recorded as “binds”.

In the case of CUCAAUAUGAUAAAUUUUGUAAAUC (ssRNA) [SOT5-IN7-NL], in the series with RBP45d (His-RBP45d) [2], the binding result is “binds”.
